These results are taken from patent publication US20250059294A1 (PURINOMIA BIOTECH, published 2025).

For experiment [1], the target named is T1, human CD39 (ectonucleoside triphosphate diphosphohydrolase-1) (human, UniProt P49961 1-510).
T1 construct: whole, on cells; also called hCD39; ENTPD1
T1 sequence (looked up): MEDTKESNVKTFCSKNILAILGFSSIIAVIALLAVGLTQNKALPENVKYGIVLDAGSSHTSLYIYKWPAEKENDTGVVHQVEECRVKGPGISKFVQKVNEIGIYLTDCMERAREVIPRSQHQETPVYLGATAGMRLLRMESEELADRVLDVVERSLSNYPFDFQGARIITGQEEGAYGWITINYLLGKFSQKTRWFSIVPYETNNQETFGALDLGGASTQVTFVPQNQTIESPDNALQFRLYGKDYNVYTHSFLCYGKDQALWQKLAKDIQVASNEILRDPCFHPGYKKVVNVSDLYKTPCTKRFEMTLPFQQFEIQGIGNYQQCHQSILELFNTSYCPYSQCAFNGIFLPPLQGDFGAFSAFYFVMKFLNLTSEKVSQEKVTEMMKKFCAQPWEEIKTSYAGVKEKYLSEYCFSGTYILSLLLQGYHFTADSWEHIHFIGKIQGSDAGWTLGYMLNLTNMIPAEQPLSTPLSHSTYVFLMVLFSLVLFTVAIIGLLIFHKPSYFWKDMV
In words: flow cytometry, serial dilution on CHO-hCD39 cells, anti-human IgG Fc AF488 secondary. As for the experimental part:
FIG. 10. […] Ig39-21 WT, Ig39-21 AF or NP501-BK (an optimized version of Ig39-21 by production using stably transfected cells) were serially diluted as indicated and incubated with CHO-hCD39 cells for 30 minutes at 4° C. Cells were then stained with secondary antibody (anti-human IgG (Fc specific), Alexa Fluor® 488) for 30 minutes at 4° C. and analyzed by flow cytometry. Human IgG1 isotype control antibody (KLH-hIgG1) was used in parallel.

Experiment [2] addresses T1, human CD39 (ectonucleoside triphosphate …). In words: cell-based or functional assay.
The target is the same in experiment [3]. In words: flow cytometry, serial dilution on HCC1739BL cells, 30 min at 4 °C. As for the experimental part: FIG. 1. Affinity of Ig39-21 measured by flow cytometry using human CD39hi human B lymphoblastoid (HCC1739BL) cells. Our fully human anti-CD39 antibody clone Ig39-21 produced by transient transfection was serially diluted as indicated and incubated with HCC1739BL cells for 30 minutes at 4° C., followed by flow cytometric analysis.
For orientation: A flow cytometer gives signals particle by particle.

The target is the same in experiment [4]. Nature of the experiment: flow cytometry, serial dilution on HCC1739BL cells, anti-human IgG Fc AF488 secondary. As for the experimental part:
FIG. 11. […] Ig39-21 WT, Ig39-21 AF or NP501-BK were serially diluted as indicated and incubated with HCC1739BL cells for 30 minutes at 4° C. Afterwards, cells were stained with secondary antibody (anti-human IgG (Fc specific), Alexa Fluor® 488) for 30 minutes at 4° C. and analyzed by flow cytometry. Human IgG1 isotype control antibody (KLH-hIgG1) was used in parallel.

Experiment [5] deals with T2, human CD39 (ectonucleoside triphosphate diphosphohydrolase-1) (human, UniProt P49961 1-510).
T2 chain: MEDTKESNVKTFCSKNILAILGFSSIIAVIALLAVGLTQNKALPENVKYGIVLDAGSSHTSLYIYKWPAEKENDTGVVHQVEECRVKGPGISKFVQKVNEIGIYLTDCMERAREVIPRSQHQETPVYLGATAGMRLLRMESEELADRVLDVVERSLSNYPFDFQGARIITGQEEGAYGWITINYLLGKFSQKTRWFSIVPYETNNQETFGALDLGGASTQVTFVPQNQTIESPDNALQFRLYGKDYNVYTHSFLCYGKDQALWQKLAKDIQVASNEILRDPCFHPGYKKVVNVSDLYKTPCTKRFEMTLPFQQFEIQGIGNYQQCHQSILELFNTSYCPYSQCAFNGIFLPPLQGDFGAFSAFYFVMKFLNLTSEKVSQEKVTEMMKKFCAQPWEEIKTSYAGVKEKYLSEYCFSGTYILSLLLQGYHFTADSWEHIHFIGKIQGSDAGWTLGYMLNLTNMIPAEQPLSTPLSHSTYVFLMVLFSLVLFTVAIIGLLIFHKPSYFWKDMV
Nature of the experiment: flow cytometry; HCC1739BL cells.

A word on the Kd: it is the equilibrium constant for the complex coming apart.

Several values for one entry are separate records, joined by “and”; a condition that tells them apart may be missing. Identical values can stand only once.

B1: Ig39-21 WT (antibody, human IgG1, kappa, V domains shown)
VH: EVQLVESGGGVVRPGGSLRLSCAASGFTFSSYAMHWVRQAPGKGLEWVAVISYDVSNKYYADSVKGRFTISRDNSKNTLYLQMNSLRAEDTAVYYCARSYYYYYGMDVWGQGTTVTVSS
VL: DVVMTQSPSSLSASVGDRVTITCRASQSISRYLAWYQQKPGQAPRLLIYDASNRATGIPVRFSGSGSGTDFTLTISRLEPEDFAVYYCQQFGRSPRTFGQGTRLEIKR
notes: also called fully human anti-CD39 antibody clone Ig39-21
Regarding B1, the Kd is 0.52 nM in experiment [1], 0.412 nM in experiment [3] and 0.29 nM in experiment [4]. Further, the “ADCC Luc-reporter assay (Jurkat hCD16a-158V effector cells), HCC1739BL target cells, EC50” value in experiment [2] was determined as 0.014 µg/mL. Also, the “ADCC Luc-reporter assay, HCC1739BL target cells, EC50” value in experiment [2] is 0.014 µg/mL and 0.02 µg/mL. In experiment [2], the “CDC assay (10% Normal Human Serum), Raji-hCD39hi target cells, EC50” value (“CDC assay (10% Normal Human Serum)” below) was determined as 0.38 µg/mL.

B2: Ig39-21 AF (antibody, human IgG1, kappa, V domains shown)
VH: EVQLVESGGGVVRPGGSLRLSCAASGFTFSSYAMHWVRQAPGKGLEWVAVISYDVSNKYYADSVKGRFTISRDNSKNTLYLQMNSLRAEDTAVYYCARSYYYYYGMDVWGQGTTVTVSS
VL: DVVMTQSPSSLSASVGDRVTITCRASQSISRYLAWYQQKPGQAPRLLIYDASNRATGIPVRFSGSGSGTDFTLTISRLEPEDFAVYYCQQFGRSPRTFGQGTRLEIKR
modifications: afucosylated glycan (produced in presence of fucosylation inhibitor 2-Deoxy-2-fluoro-L-fucose)
notes: also called afucosylated Ig39-21
On to B2, for which the Kd amounted to 0.51 nM in experiment [1] and 0.35 nM in experiment [4]. Moreover, the “ADCC Luc-reporter assay, HCC1739BL target cells, EC50” value in experiment [2] is 0.00086 µg/mL and 0.0008 µg/mL. For the same molecule, in experiment [2], the “CDC assay (10% Normal Human Serum)” value was 0.25 µg/mL.

B3: NP501-BK (antibody, V domains shown)
VH: EVQLVESGGGVVRPGGSLRLSCAASGFTFSSYAMHWVRQAPGKGLEWVAVISYDVSNKYYADSVKGRFTISRDNSKNTLYLQMNSLRAEDTAVYYCARSYYYYYGMDVWGQGTTVTVSS
VL: DVVMTQSPSSLSASVGDRVTITCRASQSISRYLAWYQQKPGQAPRLLIYDASNRATGIPVRFSGSGSGTDFTLTISRLEPEDFAVYYCQQFGRSPRTFGQGTRLEIKR
modifications: decreased fucosylation by optimized production process
notes: 'An optimized version of Ig39-21 by production using stably transfected cells' (CHO); also called Optimized Ig39-21
Take B3: in experiment [1], the Kd amounted to 0.48 nM. For the same molecule, in experiment [2], the “ADCC Luc-reporter assay, HCC1739BL target cells, EC50” value stood at 0.0017 µg/mL and the “CDC assay (10% Normal Human Serum)” value was found to be 0.31 µg/mL. In addition, in experiment [4], binding was characterised by a dissociation constant (Kd) of 0.16 nM.

B4: Human/Rabbit chimeric clone 9C10 (antibody, V domains shown)
VH: QSVEESGGRLVTPGTPLTLTCTVSGFSLSSYAMSWVRQAPGKGLEYIGIISSSGSTYYASWAKGRFTISKTSTTVDLKISSPTTEDTATYFCARDRVIYSIGPYYFNLWGPGTLVTVSS
VL: AYDMTQTPSSVSATVGGTVTINCQASEIIYSNLAWYQQKPGQPPKLLIYGASTLASGVPSRFKGSGSGTEYTLTISDLQCDDAATYYCQQSFSSNNVGNIFGGGTEVVVK
B4 yielded a Kd in experiment [5] of 2.95 nM.

B5: Human/Rabbit chimeric clone 8C11 (antibody, V domains shown)
VH: QSVEESGGRLVTPGTHLTLTCTVSGFSLSKSIISWVRQAPGKGLEYIGIIGSSGSTYYANWAKGRFTISKTSSTTVDLRMTSLTPEDTATYFCARGLLYSGNKSWGPGTLVTVSS
VL: AIDMTQTPSSVSAAVGGTVTINCQSSQSVLLNNQLSWFQQKPGQPPKLLIYDASTLESGVPSRFTGSGSGTQFTLTISDLECDDAATYYCLGGYSGNLYAFGGGTEVLVK
B5: in experiment [5], the affinity, expressed as Kd, was 1.68 nM.

B6: Human/Rabbit chimeric clone 8D8 (antibody, V domains shown)
VH: QSVEESGGRLVTPGTPLTLTCTVSGFSLSSYAISWVRQAPGKGLEYIAIINSYGTTYYASWAKGRVTISKTSSTVDLKISSPTTEDTATYFCARGDSYGSGVGLGLWGPGTLVTVSS
VL: AYDMTQTPASVEVAVGGTVTIKCQASQNIYSNLAWYQQKPGQRPKLLIYRASSLASGVPSRFSGSGSGTEFTLTISGVQCDDAATYYCQQGFSSNNVDNTFGGGTEVVVK
With B6, in experiment [5], binding was characterised by a dissociation constant (Kd) of 1.1 nM.

B7: Human/Rabbit chimeric clone 9B6 (antibody, human IgG1, V domains shown)
VH: QSVKEAGGRLVTPGGSLTLTCTVSGFSLSAYGISWVRQAPGKGLEWIGIIYSSGRTYYANWAKGRFTISKTSSTTVDLKMTSLTTEDTAAYFCARSRAGISSGDGFDSWGPGTLVTVSS
VL: ALVMTQTPSSVSAAVGGTVTINCQASQNIYSNLAWYQQKPGQRPQLLIYRASTLASGVPSRFKGSASGTEYTLTISGVQCDDAATYYCQQGFDSSNIDNTFGGGTEVVVT
B7: the “ADCC Luc-reporter assay, HCC1739BL target cells, EC50” value in experiment [2] came to 0.022 µg/mL.
